The values below come from patent US20260242515A1 (DUALITY BIOLOGICS SHANGHAI, published 2026).

Numbering of substitutions follows the chain as printed.

Assay [1] has as its target T1, Monkey ADAM9 protein (ACRO, Cat. No. AD9-C52H7) (cynomolgus monkey, UniProt A0A2K5X4X8 29-697).
T1 construct: Bought protein; also called cynomolgus ADAM9 protein; monkey ADAM9 antigen
T1 sequence: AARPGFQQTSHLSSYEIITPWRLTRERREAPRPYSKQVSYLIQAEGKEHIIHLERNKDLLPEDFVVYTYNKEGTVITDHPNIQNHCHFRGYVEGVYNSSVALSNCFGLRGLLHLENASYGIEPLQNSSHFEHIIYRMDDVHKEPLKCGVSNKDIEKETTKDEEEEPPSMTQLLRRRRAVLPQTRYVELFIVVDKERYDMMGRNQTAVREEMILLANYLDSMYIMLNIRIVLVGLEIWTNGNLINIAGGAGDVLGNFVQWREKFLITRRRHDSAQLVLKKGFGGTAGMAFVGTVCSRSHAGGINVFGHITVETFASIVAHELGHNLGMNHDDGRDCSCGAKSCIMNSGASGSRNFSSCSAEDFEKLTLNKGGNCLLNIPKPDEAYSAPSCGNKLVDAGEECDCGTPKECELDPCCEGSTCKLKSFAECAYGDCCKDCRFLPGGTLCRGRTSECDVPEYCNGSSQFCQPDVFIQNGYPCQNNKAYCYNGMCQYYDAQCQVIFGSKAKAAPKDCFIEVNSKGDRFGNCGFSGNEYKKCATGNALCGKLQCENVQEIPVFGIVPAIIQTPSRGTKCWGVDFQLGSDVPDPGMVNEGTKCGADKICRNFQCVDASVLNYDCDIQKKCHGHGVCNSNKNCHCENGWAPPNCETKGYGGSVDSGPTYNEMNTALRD
Nature of the assay: SPR (Biacore 8K), antibody captured by anti-human Fc on CM5, monkey ADAM9 as analyte. As to the method: Chip preparation: The mouse anti-human IgG (Fc) antibody (Cat. No. 29234600, Cytiva) was diluted to 25 μg/mL in immobilization buffer (10 mM sodium acetate, pH 5.0), specifically by adding 950 μL of the immobilization buffer to 50 μL of the mouse anti-human IgG (Fc) antibody. The dilution was used for immobilization in eight channels. First, the surface of the CM5 chip was activated with 400 mM EDC and 100 mM NHS at a flow rate of 10 μL/min for 420 seconds. Then, 25 μg/mL of the mouse anti-human IgG (Fc) antibody was injected into the test channels at a flow rate of 10 μL/min for approximately 360 seconds, with the level of immobilization at approximately 7000 to 14000 RU. Finally, the chip was blocked with 1 M ethanolamine at a flow rate of 10 μL/min for 420 seconds. The reference channels underwent the same procedures as the test channels.
Ligand capture: Antibodies Ab10, Ab15, Ab16, and hMAB-A (2I.2) were diluted to 4 μg/mL in running buffer (containing 10 mM N-(2-hydroxyethyl)piperazine-N-2-ethanesulfonic acid (HEPES), 150 mM sodium chloride (NaCl), 3 mM ethylenediaminetetraacetic acid (EDTA), 0.005% Tween-20, pH adjusted to 7.4) and injected into the test channels for human IgG (Fc) capture at a flow rate of 10 μL/min at approximately 200 RU. No ligand capture was performed in the reference channels.
Analyte multi-cycle analysis: Human and cynomolgus ADAM9 proteins (human ADAM9 protein purchased from ACRO, Cat. No. AD9-H52H7; monkey ADAM9 protein purchased from ACRO, Cat. No. AD9-C52H7) were diluted 2-fold in running buffer (Table 10). The diluted human or cynomolgus ADAM9 protein was sequentially injected into the test channels and the reference channels at a flow rate of 30 μL/min, with corresponding association and dissociation times. Both the association and dissociation steps were performed in the running buffer. After each concentration analysis, the chip was regenerated with 3 M magnesium chloride at a flow rate of 20 μL/min for 30 seconds to wash away the ligand and any undissociated analyte. For the next concentration analysis, the test channels required re-capture of the same amount of ligand.
On the technique in general: In SPR one partner is held on a chip, and binding of the other changes the refractive index at the surface.

Assay [2] addresses T2, Human ADAM9 protein (ACROBiosystems, Cat. No. AD9-H52H7) (human, UniProt Q13443 29-697).
T2 construct: Bought protein; also called Human ADAM-His protein; human ADAM9 antigen; not shown: His tag
T2 sequence (looked up): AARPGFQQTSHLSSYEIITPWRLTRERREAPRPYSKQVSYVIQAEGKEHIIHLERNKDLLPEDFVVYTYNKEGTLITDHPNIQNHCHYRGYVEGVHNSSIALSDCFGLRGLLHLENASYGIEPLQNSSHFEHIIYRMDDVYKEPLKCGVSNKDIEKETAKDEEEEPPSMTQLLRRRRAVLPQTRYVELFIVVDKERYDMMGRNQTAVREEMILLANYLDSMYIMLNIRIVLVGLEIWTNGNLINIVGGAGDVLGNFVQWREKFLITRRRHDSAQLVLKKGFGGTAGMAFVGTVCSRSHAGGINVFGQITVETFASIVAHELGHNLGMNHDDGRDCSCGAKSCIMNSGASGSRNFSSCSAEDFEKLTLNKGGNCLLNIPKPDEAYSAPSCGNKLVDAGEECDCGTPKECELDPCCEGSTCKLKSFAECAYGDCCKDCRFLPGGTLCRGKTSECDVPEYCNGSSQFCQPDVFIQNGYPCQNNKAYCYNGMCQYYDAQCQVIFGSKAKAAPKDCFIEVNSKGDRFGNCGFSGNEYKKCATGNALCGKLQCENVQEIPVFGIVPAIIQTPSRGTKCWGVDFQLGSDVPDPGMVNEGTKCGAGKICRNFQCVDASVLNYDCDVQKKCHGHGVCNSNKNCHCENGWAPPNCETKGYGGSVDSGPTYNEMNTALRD
Nature of the assay: indirect ELISA, human ADAM9-His coated at 1 ug/mL. On the procedure: The plate was washed three times with PBST (PBS (pH 7.4) containing 0.05% Tween-20), followed by addition of 200 μL/well of blocking buffer containing 1% bovine serum albumin (BSA) diluted in PBST, and incubated at 37° C. for 1 hour for blocking. After blocking, the blocking buffer was discarded, and the plate was washed once with PBST buffer. The test antibody was diluted in PBST containing 1% BSA with a 3-fold serial dilution starting at 15 μg/mL across 11 doses, and added to the ELISA plate at 100 μL/well, followed by incubation at 37° C. for 1 hour. After incubation, the plate was washed three times with PBST, followed by addition of 100 μL/well of HRP-labeled goat anti-human secondary antibody (Rockland, Cat. No. 609-103-123) diluted in PBST containing 1% BSA, and incubated at room temperature for 45 minutes. The plate was washed six times with PBST, followed by addition of 100 μL/well of TMB chromogenic substrate (Suzhou Yacoo Chemical Reagent Co., Ltd., Cat. No. S0025), and incubated at room temperature in the dark for 10 minutes. The reaction was terminated by adding 50 μL/well of 1 M HCl, and the absorbance was measured at 450 nm using a microplate reader (Thermo, Ascent) for data analysis.
(In an ELISA, binding on a coated surface is turned into a signal by an enzyme label.)

B1: Ab15 (antibody, human IgG1, kappa, V domains shown)
VH: QVQLQQPGAELKKPGASVKVSCKASGFTFPLYWMNWVRQRPGRGLEWIGRIIPIFGHTKYNEKFKDRATMTADESSSTAYMELSSLTSEDSAVYYCARGGYYYYPREGFLDYWGQGTSVTVSS
VL: DIVMTQSPDSLSVSPGERATINCRSSQSVDYSGDSYMNWYQQKPGQSPRLLIYAASDRESGVPDRFSGSGSGTDFTLKISNVEEEDAATYYCQQSREDPFTFGQGTRVEIKR
notes: Humanized anti-ADAM9 IgG1/kappa; also called Ab15-V (variable regions)
As a reminder, the Kd is the concentration at which binding is half-saturated. In general, koff refers to a measure of how fast the partners let go of each other. The term kon denotes a measure of how fast the partners come together. One may read the EC50 as the concentration needed to bring the measured effect to its halfway point. Turning to B1, in assay [1], the Kd was 9.47 nM, the koff is 0.000461 s⁻¹ and the kon was determined as 48700 M⁻¹ s⁻¹. Further, in assay [2], the midpoint of the response, the EC50, lay at 0.049 nM and the “Top (OD450)” value stood at 3.28 OD450.

B2: Ab16 (antibody, human IgG1, kappa, V domains shown)
VH: B1 VH with A9T, L11V, K12V, V20L, N35H, D66N, R67K, M70L, S84R, E89D
VL: B1 VL with D9A, T20S, N22S, N81R, A88G, R107K, E109D
notes: Humanized anti-ADAM9 IgG1/kappa; also called Ab16-V (variable regions)
Regarding B2, in assay [1], the Kd stood at 8.61 nM, the koff was found to be 0.000528 s⁻¹ and the kon was 61300 M⁻¹ s⁻¹. In assay [2], the EC50 worked out at 0.042 nM and the “Top (OD450)” value came to 3.36 OD450.
